Source: US11203743B2, “Method for producing long-chain glycosylated genistein” (Jiangnan University, priority 2019, dated 2021)

Assay: Specificity of different cyclodextrin glucosyltransferases to glycosylated genistein products (maltodextrin donor, genistein receptor, HPLC)
Assay type: biochemical
Conditions: 40° C., pH 6.5, 120 rpm, 20-24 hours
Protocol: Genistein (purchased from Sigma) was dissolved in dimethyl sulfoxide (DMSO) to prepare a genistein solution with a final concentration of 7.5 g/L; maltodextrin (purchased from Shanghai Sangon Biotech Co., Ltd.) was dissolved in a PBS buffer (50 mM, pH 6.5) to prepare a maltodextrin solution with a final concentration of 40 g/L; the freeze-fried pure enzymes of the mutants A156V/L174P, A156V/L174P/166Y, A156V/L174P/A166V, A156V/L174P/A166G, A156V/L174P/A166K, A156S, A156L and L174M obtained in Example 1 were dissolved in a PBS buffer (50 mM, pH 6.5) separately to prepare a CGTase enzyme solution with a final concentration of 15 U/L; 300 μL of the genistein solution, 500 μL of the maltodextrin solution and 200 μL of the CGTase enzyme solution were taken separately, mixed in a 2 mL vial with a lid and placed in a shaker for slow shaking at 40° C. and 120 rpm for 20-24 hours to obtain a reaction solution.
The molar content of short-chain glycosylated genistein (here the short-chain glycosylated genistein was a mixture of monoglycosylated genistein, diglycosylated genistein and triglycosylated genistein) and long-chain glycosylated genistein (here the long-chain glycosylated genistein was a mixture of tetraglycosylated genistein, pentaglycosylated genistein and hexaglycosylated genistein) in the reaction solution was detected by HPLC, the ratio (%) of the molar content of short-chain glycosylated genistein and long-chain glycosylated genistein in the reaction solution to the molar content of total glycosylated genistein in the reaction solution and the content (g/L) of short-chain glycosylated genistein and long-chain glycosylated genistein in the reaction solution were calculated, and detection results were shown in Tables 1 to 2. A method for detecting the ratio (%) of the content of short-chain glycosylated genistein and long-chain glycosylated genistein in the reaction solution to the content of total glycosylated genistein in the reaction solution by HPLC included that the reaction solution was filtered through a 0.22 μm filter membrane, and an Amethyst C18-H column (4.6*250 mm, Sepax, America) was used for detection (see Table 3 for specific detection conditions). The content of long-chain glycosylated genistein=the molar content of hexaglycosylated genistein*the molecular weight of hexaglycosylated genistein+ the molar content of pentaglycosylated genistein*the molecular weight of pentaglycosylated genistein+ the molar content of tetraglycosylated genistein*the molecular weight of tetraglycosylated genistein, and the content of short-chain glycosylated genistein=the molar content of triglycosylated genistein*the molecular weight of triglycosylated genistein+ the molar content of diglycosylated genistein*the molecular weight of diglycosylated genistein+ the molar content of monoglycosylated genistein*the molecular weight of monoglycosylated genistein.

content of long-chain glycosylated genistein in the reaction solution: 3.2 g/L | content of short-chain glycosylated genistein in the reaction solution: 11.4 g/L | ratio of the molar content of long-chain glycosylated genistein to the molar content of total glycosylated genistein in the reaction solution: 15% | ratio of the molar content of short-chain glycosylated genistein to the molar content of total glycosylated genistein in the reaction solution: 85%
B1: Wild type: cyclodextrin glucosyltransferase with the amino acid sequence shown as SEQ ID NO: 1 (protein)
chain: SPDTSVDNKVNFSTDVIYQIVTDRFADGDRTNNPAGDAFSGDRSNLKLYFGGDWQGIIDKINDGYLTGMGVTALWISQPVENITSVIKYSGVNNTSYHGYWARDFKQTNDAFGDFADFQNLIDTAHAHNIKVVIDFAPNHTSPADRDNPGFAENGALYDNGSLLGAYSNDTAGLFHHNGGTDFSTIEDGIYKNLYDLADINHNNNAMDAYFKSAIDLWLGMGVDGIRFDAVKHMPFGWQKSFVSSIYGGDHPVFTFGEWYLGADQTDGDNIKFANESGMNLLDFEYAQEVREVFRDKTETMKDLYEVLASTESQYDYINNMVTFIDNHDMDRFQVAGSGTRATEQALALTLTSRGVPAIYYGTEQYMTGDGDPNNRAMMTSFNTGTTAYKVIQALAPLRKSNPAIAYGTTTERWVNNDVLIIERKFGSSAALVAINRNSSAAYPISGLLSSLPAGTYSDVLNGLLNGNSITVGSGGAVTNFTLAAGGTAVWQYTAPETSPAIGNVGPTMGQPGNIVTIDGRGFGGTAGTVYFGTTAVTGSGIVSWEDTQIKAVIPKVAAGKTGVSVKTSSGTASNTFKSFNVLTGDQVTVRFLVNQANTNYGTNVYLVGNAAELGSWDPNKAIGPMYNQVIAKYPSWYYDVSVPAGTKLDFKFIKKGGGTVTWEGGGNHTYTTPASGVGTVTVDWQN
modifications: Translated from synthetic DNA
